The values below come from patent US20230050440A1 (Seagen, published 2023).

One experiment deals with T1, cyno TIGIT-Fc (cynomolgus monkey).
T1 construct: not shown: Fc part
Briefly: BLI (ForteBio), IgG on sensor, avid.

Experiment [1] addresses T2, monomeric human TIGIT (Sino Biological 10917-H08H) (human, UniProt Q495A1 22-138, biotinylated in the MSD-SET assay).
T2 construct: Bought protein; also called Human TIGIT monomer; Human TIGIT-His; not shown: His tag
T2 sequence: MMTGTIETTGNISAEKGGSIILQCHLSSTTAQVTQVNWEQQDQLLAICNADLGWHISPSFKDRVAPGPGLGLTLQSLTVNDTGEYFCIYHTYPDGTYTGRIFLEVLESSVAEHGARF
Put plainly: BLI (ForteBio), IgG on sensor, monovalent. (In general: BLI is a label-free optical method that tracks binding on a fibre tip over time.)

The target of experiment [2] is T2, monomeric human TIGIT (Sino Biological …). Put plainly: MSD-SET solution equilibrium titration, biotinylated antigen at 50 pM.
In experiment [3] the target is T3, human TIGIT expressed on cells (human, UniProt Q495A1 22-244).
T3 construct: HEK 293 cells stably expressing human TIGIT, primary human T cells or Jurkat effector cells; the cell is named under assay; also called Human TIGIT HEK
T3 sequence: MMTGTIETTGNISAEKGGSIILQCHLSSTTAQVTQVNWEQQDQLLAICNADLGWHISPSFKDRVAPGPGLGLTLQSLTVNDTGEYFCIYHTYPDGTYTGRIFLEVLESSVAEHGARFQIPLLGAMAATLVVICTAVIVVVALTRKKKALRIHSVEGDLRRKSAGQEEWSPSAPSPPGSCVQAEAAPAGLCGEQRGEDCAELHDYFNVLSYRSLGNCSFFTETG
Put plainly: flow cytometry on HEK 293 cells expressing the target, MFI over parental HEK 293.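 Further: bound antibody detected with PE-labelled anti-human IgG, 15 min on ice. FOB equals median fluorescence on TIGIT-positive cells divided by that on target-negative cells.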

Experiment [4] concerns the target T4, cynomolgus monkey TIGIT expressed on cells (cynomolgus monkey).
T4 construct: HEK 293 cells stably expressing cynomolgus monkey TIGIT or cynomolgus T cells; also called Cyno TIGIT HEK
Described as above.

Experiment [5] addresses T5, recombinant dimeric human TIGIT-Fc (Acro Biosystems TIT-H5254) (human, UniProt Q495A1 22-141).
T5 construct: Bought protein; also called hTIGIT-Fc; not shown: Fc part of the bought fusion protein
T5 sequence: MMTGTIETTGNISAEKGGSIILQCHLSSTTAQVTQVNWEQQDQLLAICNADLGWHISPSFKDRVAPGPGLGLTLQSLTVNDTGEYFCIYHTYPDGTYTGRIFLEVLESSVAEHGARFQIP
Briefly: BLI (ForteBio Octet RED384), IgG on AHQ sensor, 100 nM antigen, 1:1 model.

Experiment [6] deals with T2, monomeric human TIGIT (Sino Biological …). Described as above.

As usually defined, the Kd is the constant that tells how readily two partners part at equilibrium.

T4 sequence (chain, as listed by the source limits assumed): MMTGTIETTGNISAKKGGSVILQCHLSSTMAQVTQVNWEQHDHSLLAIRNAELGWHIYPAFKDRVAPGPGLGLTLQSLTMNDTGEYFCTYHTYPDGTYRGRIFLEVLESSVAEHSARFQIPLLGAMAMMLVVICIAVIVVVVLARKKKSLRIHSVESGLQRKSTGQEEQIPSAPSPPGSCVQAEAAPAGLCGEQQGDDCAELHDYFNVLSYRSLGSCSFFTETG
T1 sequence (chain, as listed by the source limits assumed): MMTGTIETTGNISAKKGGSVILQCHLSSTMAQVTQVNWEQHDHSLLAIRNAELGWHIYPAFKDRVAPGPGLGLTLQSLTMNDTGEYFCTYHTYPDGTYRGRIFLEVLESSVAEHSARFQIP

B1: Clone 16C (antibody, V domains shown)
VH: QVQLVQSGAEVKKPGSSVKVSCKASGGTFREYAISWVRQAPGQGLEWMGGIHPIFGTARYAQKFQGRVTITADESTSTAYMELSSLRSEDTAVYYCTRQSTWHKLYGTDVWGQGTTVTVSS
VL: DIQMTQSPSSVSASVGDRVTITCRASQGISSWLAWYQQKPGKAPKLLIYAASSLQSGVPSRFSGSGSGTDFTLTISSLQPEDFATYYCQQGDSLPPTFGGGTKVEIK
Regarding B1, the Kd worked out at 4250 pM with cyno TIGIT-Fc, 911 pM in experiment [1] and 6.3 pM in experiment [2]. Further, the “FOB (Fold Over Background)” value turned out to be 208 fold in experiment [3] and 157 fold in experiment [4].

B2: Clone 18 (antibody, V domains shown)
VH: QVQLVQSGAEVKKPGASVKVSCKASGYTFTSYYMSWVRQAPGQGLEWMGIINPSGGSTSYAQKFQGRVTMTRDTSTSTVYMELSSLRSEDTAVYYCARVRYGYADGMDVWGQGTTVTVSS
VL: DIQMTQSPSSLSASVGDRVTITCRASQSISSYLNWYQQKPGKAPKLLIYGASSLQSGVPSRFSGSGSGTDFTLTISSLQPEDFATYYCQQVYHLPFTFGGGTKVEIK
notes: Fully human IgG produced in yeast
As to B2, the Kd in experiment [5] worked out at 2390 pM; in experiment [6], 50800 pM.

B3: Clone 16D (antibody, V domains shown)
VH: QVQLVQSGAEVKKPGSSVKVSCKASGGTFSDYPISWVRQAPGQGLEWMGGIIPIVGGANYAQKFQGRVTITADESTSTAYMELSSLRSEDTAVYYCTRQSTWHKLFGTDVWGQGTTVTVSS
VL: DIQMTQSPSSVSASVGDRVTITCRASQGISSWLAWYQQKPGKAPKLLIYAASSLQSGVPSRFSGSGSGTDFTLTISSLQPEDFATYYCQQGDSLPPTFGGGTKVEIK
As to B3, the Kd with cyno TIGIT-Fc amounted to 1150 pM; in experiment [1], 596 pM; in experiment [2] it was 13 pM. Moreover, the “FOB (Fold Over Background)” value came out at 199 fold in experiment [3] and 241 fold in experiment [4].

B4: Clone 16E (antibody, V domains shown)
VH: QVQLVQSGAEVKKPGSSVKVSCKASGGTFSDYPISWVRQAPGQGLEWMGGIIPIVGGANYAQKFQGRVTITADESTSTAYMELSSLRSEDTAVYYCARQSTWHKVYGTDVWGQGTTVTVSS
VL: DIQMTQSPSSVSASVGDRVTITCRASQGISSWLAWYQQKPGKAPKLLIYAASSLQSGVPSRFSGSGSGTDFTLTISSLQPEDFATYYCQQGDSLPPTFGGGTKVEIK
As for B4, the dissociation constant Kd worked out at 1360 pM with cyno TIGIT-Fc, 778 pM in experiment [1] and 11 pM in experiment [2]. The “FOB (Fold Over Background)” value in experiment [3] came to 195 fold; in experiment [4], 186 fold.

B5: Clone 2C (antibody, V domains shown)
VH: EVQLVESGGGLVQPGGSLRLSCAASGFTFTDYYMDWVRQAPGKGLEWVGRTRNKVNSYYTEYAASVKGRFTISRDDSKNSLYLQMNSLKTEDTAVYYCARGQYYYGSDRRGYYYMDVWGQGTTVTVSS
VL: EIVLTQSPGTLSLSPGERATLSCRASQSVSSSYLAWYQQKPGQAPRLLIYGASSRATGIPDRFSGSGSGTDFTLTISRLEPEDFAVYYCQQAVPSPLTFGGGTKVEIK
Consider B5, for which the results for the Kd (in the experiment with cyno TIGIT-Fc; in experiment [1]; in experiment [2]) were 984 pM, 518 pM and 16 pM, respectively. For the same molecule, the “FOB (Fold Over Background)” value in experiment [3] worked out at 193 fold; in experiment [4], 224 fold.

B6: Clone 25A (antibody, V domains shown)
VH: QVQLVQSGAEVKKPGASVKVSCKASGYTFTSYAISWVRQAPGQGLEWMGWISAYNGNTKYAQKLQGRVTMTTDTSTSTAYMELRSLRSDDTAVYYCARDLSSFWSGDVLGAFDIWGQGTMVTVSS
VL: DIQMTQSPSSLSASVGDRVTITCRASQSISSYLNWYQQKPGKAPKLLIYAASSLQSGVPSRFSGSGSGTDFTLTISSLQPEDFATYYCQQSVPPRTFGGGTKVEIK
Turning to B6, the Kd came out at 1640 pM with cyno TIGIT-Fc, 1100 pM in experiment [1] and 18 pM in experiment [2]. Further, the “FOB (Fold Over Background)” value was found to be 207 fold in experiment [3] and 238 fold in experiment [4].

B7: Clone 25D (antibody, V domains shown)
VH: QVQLVQSGAEVKKPGASVKVSCKASGYTFTSYPIGWVRQAPGQGLEWMGWISSYNGNTNYAQKLQGRVTMTTDTSTSTAYMELRSLRSDDTAVYYCARDLKSFWSGDVLGAFDIWGQGTMVTVSS
VL: DIQMTQSPSSLSASVGDRVTITCRASQSISSYLNWYQQKPGKAPKLLIYAASSLQSGVPSRFSGSGSGTDFTLTISSLQPEDFATYYCQQSVPPRTFGGGTKVEIK
As for B7, the Kd in the experiment with cyno TIGIT-Fc came to 1180 pM; in experiment [1], 846 pM; in experiment [2], 27 pM. The “FOB (Fold Over Background)” value in experiment [3] came out at 225 fold; in experiment [4] it was 272 fold.

B8: Clone 25E (antibody, V domains shown)
VH: QVQLVQSGAEVKKPGASVKVSCKASGYTFTSYAIAWVRQAPGQGLEWMGWISAYNGNTNYAQKLQGRVTMTTDTSTSTAYMELRSLRSDDTAVYYCARSGSSFWSGDVLGAFDIWGQGTMVTVSS
VL: DIQMTQSPSSLSASVGDRVTITCRASQSISSYLNWYQQKPGKAPKLLIYAASSLQSGVPSRFSGSGSGTDFTLTISSLQPEDFATYYCQQSVPPRTFGGGTKVEIK
With B8, the Kd was found to be 1180 pM in the experiment with cyno TIGIT-Fc, 851 pM in experiment [1] and 13 pM in experiment [2]. For the same molecule, the figures for the “FOB (Fold Over Background)” value in experiment [3] and in experiment [4] were 204 fold and 252 fold, respectively.

B9: Clone 25B (antibody, V domains shown)
VH: QVQLVQSGAEVKKPGASVKVSCKASGYTFTSYPIGWVRQAPGQGLEWMGWISSYNGNTNYAQKLQGRVTMTTDTSTSTAYMELRSLRSDDTAVYYCARDLSSFWSGDVLGAFDIWGQGTMVTVSS
VL: DIQMTQSPSSLSASVGDRVTITCRASQSISSYLNWYQQKPGKAPKLLIYAASSLQSGVPSRFSGSGSGTDFTLTISSLQPEDFATYYCQQSVPPRTFGGGTKVEIK
For the molecule B9, the figures for the Kd (with cyno TIGIT-Fc; in experiment [1]; in experiment [2]) were 1400 pM, 1160 pM and 22 pM, respectively. Further, the “FOB (Fold Over Background)” value in experiment [3] was determined as 222 fold; in experiment [4], 291 fold.

B10: Clone 25C (antibody, V domains shown)
VH: QVQLVQSGAEVKKPGASVKVSCKASGYTFTSYPIGWVRQAPGQGLEWMGWISSYNGNTNYAQKLQGRVTMTTDTSTSTAYMELRSLRSDDTAVYYCARGASSFWSGDVLGAFDIWGQGTMVTVSS
VL: DIQMTQSPSSLSASVGDRVTITCRASQSISSYLNWYQQKPGKAPKLLIYAASSLQSGVPSRFSGSGSGTDFTLTISSLQPEDFATYYCQQSVPPRTFGGGTKVEIK
As to B10, the Kd with cyno TIGIT-Fc amounted to 1240 pM; in experiment [1], 697 pM; in experiment [2], 5.6 pM. Besides, the “FOB (Fold Over Background)” value in experiment [3] was determined as 216 fold; in experiment [4], 286 fold.

B11: Clone 13D (antibody, V domains shown)
VH: QVQLVQSGAEVKKPGSSVKVSCKASGGTFLSSAISWVRQAPGQGLEWMGSIIPYFGKANYAQKFQGRVTITADESTSTAYMELSSLRSEDTAVYYCARGPSEVKGILGYVWFDPWGQGTLVTVSS
VL: not shown
Consider B11, for which the Kd was found to be 571 pM in experiment [1] and 5 pM in experiment [2].

B12: Clone 13A (antibody, V domains shown)
VH: QVQLVQSGAEVKKPGSSVKVSCKASGGTFLSSAISWVRQAPGQGLEWMGSLIPYFGTANYAQKFQGRVTITADESTSTAYMELSSLRSEDTAVYYCARGPSEVGAILGYVWFDPWGQGTLVTVSS
VL: not shown
As to B12, the Kd in experiment [1] worked out at 627 pM; in experiment [2] it was 25 pM.

B13: Clone 13C (antibody, IgG1, V domains shown)
VH: QVQLVQSGAEVKKPGSSVKVSCKASGGTFLSSAISWVRQAPGQGLEWMGSIIPLFGKANYAQKFQGRVTITADESTSTAYMELSSLRSEDTAVYYCARGPSEVKGILGYVWFDPWGQGTLVTVSS
VL: not shown
As to B13, the values for the dissociation constant (Kd) in experiment [1] and in experiment [2] were 563 pM and 8.6 pM, respectively.

B14: Clone 14 (antibody, V domains shown)
VH: QVQLVQSGAEVKKPGSSVKVSCKASGGTFSSYAISWVRQAPGQGLEWMGSIIPIFGTANYAQKFQGRVTITADESTSTAYMELSSLRSEDTAVYYCARGPSEVGAILGYVWFDPWGQGTLVTVSS
VL: not shown
notes: as for B2
On to B14, for which the Kd in experiment [5] stood at 2010 pM; in experiment [6] it was 58700 pM.

B15: Clone 13B (antibody, V domains shown)
VH: QVQLVQSGAEVKKPGSSVKVSCKASGGTFSAWAISWVRQAPGQGLEWMGSIIPYFGKANYAQKFQGRVTITADESTSTAYMELSSLRSEDTAVYYCARGPSEVSGILGYVWFDPWGQGTLVTVSS
VL: not shown
Regarding B15, the figures for the Kd in experiment [1] and in experiment [2] were 610 pM and 5.3 pM, respectively.
